*1 amine or outer side, *2 acyl side, *3 side chain or, on linkers, in order; H or OH if unused. Bridges are numbered along the chain shown (N, C = ends). Primed or numbered codes have the meaning given here. [ ]: non-standard residue; d: D form. B5(4) = 2-amino-2-(pent-4-en-1-yl)hept-6-enoic acid, stapled through each of its two olefin groups with other olefin-containing amino acid residues, O=C(C(CCCC=[*:3])(CCCC=[*:4])N[*:1])[*:2]; PyrS2″ = (S)-3-amino-1-((pent-4-en-1-yloxy)carbonyl)pyrrolidine-3-carboxylic acid (olefin stapling residue), C=CCCCOC(=O)N1CC[C@@](N[*:1])(C(=O)[*:2])C1; PyrS2 = (S)-3-amino-1-((pent-4-en-1-yloxy)carbonyl)pyrrolidine-3-carboxylic acid, olefin staple residue, C=CCCCOC(=O)N1CC[C@@](N[*:1])(C(=O)[*:2])C1; PyrS2(5) = (S)-3-amino-1-((pent-4-en-1-yloxy)carbonyl)pyrrolidine-3-carboxylic acid, C=CCCCOC(=O)N1CC[C@@](N[*:1])(C(=O)[*:2])C1; B5(5) = 2-amino-2-(pent-4-en-1-yl)hept-6-enoic acid (two olefin arms), C=CCCCC(CCCC=C)(N[*:1])C(=O)[*:2]; 2F3MeF″ = aromatic residue, Cc1cccc(C[C@H](N[*:1])C(=O)[*:2])c1F; Phe(3-COOH) = N[C@@H](Cc1cccc(C(=O)O)c1)C(=O)O; 2F3MeF = Cc1cccc(C[C@H](N[*:1])C(=O)[*:2])c1F; Bta = N[C@@H](Cc1csc2ccccc12)C(=O)O; αAllylPro = C=CC[C@@]1(C(=O)O)CCCN1; tBuAla = CC(C)(C)C[C@H](N)C(=O)O; Gly(cBu) = N[C@H](C(=O)O)C1CCC1; 3Thi = N[C@@H](Cc1ccsc1)C(=O)O; BztA″ = aromatic residue; CyLeu = not defined here; Nle = CCCC[C@H](N)C(=O)O; TfeGA = not defined here; GlnR = not defined here; Cpg = not defined here; B5 = not defined here; Aib = CC(C)(N)C(=O)O
Tests used:
beta-catenin (human) [1] = assay: cell-based or functional assay
beta-catenin (human) [2] = assay: fluorescence polarization

Sequence of beta-catenin (human) (B6V8E6 146-665 limits assumed): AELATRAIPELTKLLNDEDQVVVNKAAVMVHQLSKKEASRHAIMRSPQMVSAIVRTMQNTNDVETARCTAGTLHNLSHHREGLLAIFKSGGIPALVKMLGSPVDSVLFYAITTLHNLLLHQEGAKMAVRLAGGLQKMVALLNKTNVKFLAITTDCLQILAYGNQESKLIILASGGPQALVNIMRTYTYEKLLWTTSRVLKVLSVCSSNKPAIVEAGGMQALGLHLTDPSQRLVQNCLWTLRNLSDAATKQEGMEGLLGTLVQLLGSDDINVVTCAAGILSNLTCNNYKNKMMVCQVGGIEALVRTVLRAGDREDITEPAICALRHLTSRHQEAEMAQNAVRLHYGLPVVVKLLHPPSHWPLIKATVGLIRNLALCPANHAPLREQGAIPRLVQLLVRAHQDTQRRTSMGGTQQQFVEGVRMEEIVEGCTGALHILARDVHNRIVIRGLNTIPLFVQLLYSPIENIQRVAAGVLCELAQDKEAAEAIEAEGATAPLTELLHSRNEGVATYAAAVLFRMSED

Binder | NanoBRET Abs IC50 (bin >1.5 uM) (beta-catenin (human) [1]) | IC50 (beta-catenin (human) [2]) | NanoBRET Abs IC50 (beta-catenin (human) [1]) | NanoBRET Abs IC50 (bin >3.0 uM) (beta-catenin (human) [1])
Ac-[αAllylPro]D[tBuAla][B5]D[Phe(3-COOH)][Nle]AFK[PyrS2″][2F3MeF″][BztA″][GlnR]LS-NH2 (bridge 10-14; not fully specified (bridges); printed as Ac-PL3-Asp-Npg-B5-Asp-3COOHF-nLeu-Ala-Phe-Lys*3-PyrS2-2F3MeF-BztA-GlnR*3-Leu-Ser-NH2; reading uncertain; also: Lys10 and GlnR14 marked *3) [I-137] | < 3 µM | < 50 nM |  | 
Ac-[αAllylPro]D[tBuAla][B5]D[Phe(3-COOH)][Aib]AFK[PyrS2″][2F3MeF″][BztA″][GlnR]LS-NH2 (bridge 10-14; not fully specified (bridges); printed as Ac-PL3-Asp-Npg-B5-Asp-3COOHF-Aib-Ala-Phe-Lys*3-PyrS2-2F3MeF-BztA-GlnR*3-Leu-Ser-NH2; reading uncertain; also: Lys10 and GlnR14 marked *3) [I-138] | < 3 µM | < 50 nM |  | 
Ac-[αAllylPro]D[tBuAla][B5]D[Phe(3-COOH)][GlnR](29N2spiroundecane)AFL[PyrS2][2F3MeF][Bta][GlnR]A-NH2 (staple 1-4, 4-11 (inferred); not fully specified; printed as Ac-PL3-Asp-Npg-B5-Asp-3COOHF-[29N2spiroundecane]GlnR-Ala-Phe-Leu-PyrS2-2F3MeF-BztA-GlnR-Ala-NH2; reading uncertain; also: staple C=C reduced to CH2-CH2) [I-135] |  | > 1000 nM | > 10 µM | 
Ac-[αAllylPro]E[tBuAla][B5(5)]E[Phe(3-COOH)][Aib]AFK[PyrS2(5)][3Thi][Bta][GlnR]A-NH2 (bridge 10-14; not fully specified (bridges); printed as Ac-PL3-Glu-Npg-B5-Glu-3COOHF-Aib-Ala-Phe-Lys*3-PyrS2-3Thi-BztA-GlnR*3-Ala-NH2; reading uncertain) [I-470] |  | > 1000 nM | > 10 µM | 
Ac-[αAllylPro]D[tBuAla][B5]D[Phe(3-COOH)][Gly(cBu)]AFK[PyrS2″][2F3MeF″][BztA″][GlnR]LS-NH2 (bridge 10-14; not fully specified (bridges); printed as Ac-PL3-Asp-Npg-B5-Asp-3COOHF-Cbg-Ala-Phe-Lys*3-PyrS2-2F3MeF-BztA-GlnR*3-Leu-Ser-NH2; reading uncertain; also: Lys10 and GlnR14 marked *3) [I-140] |  | < 50 nM | < 1.5 µM | 
Ac-[αAllylPro]N[tBuAla][B5]D[Phe(3-COOH)][Aib]AFK[PyrS2″][2F3MeF″][BztA″][GlnR]LS-NH2 (bridge 10-14; not fully specified (bridges); printed as Ac-PL3-Asn-Npg-B5-Asp-3COOHF-Aib-Ala-Phe-Lys*3-PyrS2-2F3MeF-BztA-GlnR*3-Leu-Ser-NH2; reading uncertain; also: Lys10 and GlnR14 marked *3) [I-144] |  | < 50 nM |  | < 10 µM
Ac-[αAllylPro]D[tBuAla][B5]D[Phe(3-COOH)][CyLeu]AFK[PyrS2″][2F3MeF″][BztA″][GlnR]LS-NH2 (bridge 10-14; not fully specified (bridges); printed as Ac-PL3-Asp-Npg-B5-Asp-3COOHF-CyLeu-Ala-Phe-Lys*3-PyrS2-2F3MeF-BztA-GlnR*3-Leu-Ser-NH2; reading uncertain; also: Lys10 and GlnR14 marked *3) [I-141] | < 3 µM | < 50 nM |  | 
Ac-[αAllylPro]D[tBuAla][B5]D[Phe(3-COOH)][Cpg]AFK[PyrS2″][2F3MeF″][BztA″][GlnR]LS-NH2 (bridge 10-14; not fully specified (bridges); printed as Ac-PL3-Asp-Npg-B5-Asp-3COOHF-Cpg-Ala-Phe-Lys*3-PyrS2-2F3MeF-BztA-GlnR*3-Leu-Ser-NH2; reading uncertain; also: Lys10 and GlnR14 marked *3) [I-139] | < 3 µM | < 50 nM |  | 
Ac-[αAllylPro]D[tBuAla][B5(4)]D[TfeGA]AAFK[PyrS2″][2F3MeF][Bta][GlnR][Aib]-NH2 (bridge 10-14; not fully specified (bridges); reading uncertain; also: Lys*3 and GlnR*3 marked *3) [I-127] |  | < 50 nM |  | < 10 µM
Ac-[αAllylPro]D[tBuAla][B5(4)]D[TfeGA]AAFK[PyrS2(5)][2F3MeF][Bta][GlnR]V-NH2 (bridge 10-14; not fully specified (bridges); reading uncertain; also: Lys*3 and GlnR*3 marked *3) [I-129] |  | < 50 nM |  | < 10 µM
Ac-[αAllylPro]D[tBuAla][B5]D[Phe(3-COOH)]AAFK[PyrS2″][2F3MeF″][BztA″][GlnR]LS-NH2 (bridge 10-14; not fully specified (bridges); printed as Ac-PL3-Asp-Npg-B5-Asp-3COOHF-Ala-Ala-Phe-Lys*3-PyrS2-2F3MeF-BztA-GlnR*3-Leu-Ser-NH2; reading uncertain; also: Lys10 and GlnR14 marked *3) [I-136] | < 3 µM | < 50 nM |  | 
Ac-[αAllylPro]DL[B5(5)]DDAAFK[PyrS2(5)][3Thi][Bta][GlnR]-NH2 (bridge 10-14; not fully specified (bridges); printed as Ac-PL3-Asp-Leu-B5-Asp-Asp-Ala-Ala-Phe-Lys*3-PyrS2-3Thi-BztA-GlnR*3-NH2; reading uncertain) [I-4] |  | < 50 nM | > 10 µM | 
XDLXDDAAFQXXXK (not fully specified; Ac-PL3-Asp-Leu-B5-Asp-Asp-Ala-Ala-Phe-GlnR*3-PyrS2-3Thi-BztA-Lys*3-NH2) [I-6] |  | < 50 nM | > 10 µM | 
Ac-[αAllylPro]D[tBuAla][B5(4)]D[TfeGA]AAFK[PyrS2″][2F3MeF][Bta][GlnR][Aib]-NH2 (bridge 10-14; not fully specified (bridges); reading uncertain; also: Lys*3 and GlnR*3 marked *3) [I-126] |  | < 50 nM |  | < 10 µM
XDLXDDAAFQXXXK (not fully specified; Ac-PL3-Asp-Leu-B5-Asp-Asp-Ala-Ala-Phe-DGlnR*3-PyrS2-3Thi-BztA-Lys*3-NH2) [I-5] |  | < 50 nM | > 10 µM | 

Reference: patent US20260207704A1, “STAPLED PEPTIDES AND METHODS THEREOF” (priority 2022, published 2026)
